This is an account of results in the RNAGym collection of RNA variant scans (doi:10.7554/elife.80360).

B1: Hairpin Ribozyme (parent)
chain: GUCCUCUUUCACGUGCGCGUGAAAGAGAGAAGUGAACCAGAGAAACACACGUUGUGGUAUAUUACCUGGUA

The variants in the data set derive from B1. In words: self-cleavage, relative activity (ratio to wild type); higher = more cleavage; co-transcriptional.
On to GUCCUCUUUCACGUGCGCGUGAAAAAAAGAAGUGAACCAGAGAAACACACGUUGUGGUAUAUUACCUGGUA, for which the self-cleavage worked out at 0.148.
As for GUCCUCUUUCACGUGCGCGUGAAACAGAGAAGUGAACCAGAGAAACACACGUUGUGGUAUAUUACCUGGUU, the figure is 0.476; as for GUCCUCUUUCACGUGCGCGUGAAAAAGAGAACUGAACCAGAGAAACACACGUUGUGGUAUAUUACCUGGUA, 0.0951; as for GUCCUCUUUCACGUGCGCGUGAAACAGAGAAUUGAACCAGAGAAACACACGUUGUGGUAUAUUACCUGGUA, 0.0809.
As for GUCCUCUUUCACGUGCGCGUGAAACAGAGAAAUGAACCAGAGAAACACACGUUGUGGUAUAUUACCUGGUA, the figure is 0.0816; as for GUCCUCUUUCACGUGCGCGUGAAACAGAGAAGUGGACCAGAGAAACACACGUUGUGGUAUAUUACCUGGUA, 0.578; as for GUCCUCUUUCACGUGCGCGUGAAACAGAGAAGUGAACCAGUGAAACACACGUUGUGGUAUAUUACCUGGUA, 0.931.
As for GUCCUCUUUCACGUGCGCGUGAAAAAGAGAAGUGAACCAGAGAAACACACGUUGUGGUAUAUUACCUGCUA, the figure is 0.228; as for GUCCUCUUUCACGUGCGCGUGAAACAGAGAAGUGAACCAGAGAAACACACGUUGUAGUAUAUUACCUGGUA, 0.149.
For GUCCUCUUUCACGUGCGCGUGAAAAAGAGAAGUGAACCAUAGAAACACACGUUGUGGUAUAUUACCUGGUA, the self-cleavage is 0.153.
As for GUCCUCUUUCACGUGCGCGUGAAACAGAGAAGUGAACCAGAGAAACACACGUUGUGGUAUUUUACCUGGUA, the figure is 0.213; as for GUCCUCUUUCACGUGCGCGUGAAACAGAGAAGUGAACCAGAGAAACACACGUUGUGGUAUAUUACCUAGUA, 0.192; as for GUCCUCUUUCACGUGCGCGUGAAAAAGAGAAGUGAACCAGAGAAACACACGUUGUGGUAUAUGACCUGGUA, 0.173.
Consider GUCCUCUUUCACGUGCGCGUGAAAAAGAGAAGUGAACCAGAGAAACACAGGUUGUGGUAUAUUACCUGGUA, for which the self-cleavage came out at 0.14.
Then GUCCUCUUUCACGUGCGCGUGAAAAAGAGAAGUGAACCAGAGAAACACACGUUGUGGUAUAUUACUUGGUA, with 0.239; and GUCCUCUUUCACGUGCGCGUGAAACAGAGAAGUGAACCAAAGAAACACACGUUGUGGUAUAUUACCUGGUA, with 0.0978.
As for GUCCUCUUUCACGUGCGCGUGAAACAGAGAAGUGAACCAGAGAAACACACGUUGUGGUAUAUUACCUGAUA, the figure is 0.149; as for GUCCUCUUUCACGUGCGCGUGAAACAGAGAAGUGAACCAGAGAAUCACACGUUGUGGUAUAUUACCUGGUA, 0.205; as for GUCCUCUUUCACGUGCGCGUGAAACAGAGAAGUGAACCAGAGAAGCACACGUUGUGGUAUAUUACCUGGUA, 0.0878.
For the variant GUCCUCUUUCACGUGCGCGUGAAACAGAGAAGUGAACCAGAGAACCACACGUUGUGGUAUAUUACCUGGUA, the self-cleavage worked out at 0.123.
Then GUCCUCUUUCACGUGCGCGUGAAACAGAGAAGUGAACCAGAGAAACUCACGUUGUGGUAUAUUACCUGGUA, with 0.0432.
Consider GUCCUCUUUCACGUGCGCGUGAAACAGAGAAGUGAACCAGAGAAAUACACGUUGUGGUAUAUUACCUGGUA, for which the self-cleavage turned out to be 0.0896.
With GUCCUCUUUCACGUGCGCGUGAAACAGAGAAGUGAACCAGAGAAACACACGUUGUGGUACAUUACCUGGUA, the self-cleavage came to 0.673.
Then GUCCUCUUUCACGUGCGCGUGAAACAGAGAAGUUAACCAGAGAAACACACGUUGUGGUAUAUUACCUGGUA, with 1.25; and GUCCUCUUUCACGUGCGCGUGAAACAGAGAAGUAAACCAGAGAAACACACGUUGUGGUAUAUUACCUGGUA, with 0.821.
As for GUCCUCUUUCACGUGCGCGUGAAACAGAGAAGUGAACCAGAGAAACACACGUUGUGGUAUACUACCUGGUA, the figure is 0.252.
On to GUCCUCUUUCACGUGCGCGUGAAACAGAGAAGUGAACCAGAGAAACACACGUUGUGGUAUAGUACCUGGUA, for which the self-cleavage is 0.0816.
Then GUCCUCUUUCACGUGCGCGUGAAAAAGAGAAGUGAACCAGAGAAACAGACGUUGUGGUAUAUUACCUGGUA, with 0.0903; and GUCCUCUUUCACGUGCGCGUGAAACAGAGAAGUGAACCAGAGAAACACACGUUGUGGUAUAUUAGCUGGUA, with 0.174; and GUCCUCUUUCACGUGCGCGUGAAACAGAGAAGUGAACCAGAGAAACACACGUUGUGGUAUAUUAACUGGUA, with 0.382.
Then GUCCUCUUUCACGUGCGCGUGAAACAGAGAAGCGAACCAGAGAAACACACGUUGUGGUAUAUUACCUGGUA, with 0.319; and GUCCUCUUUCACGUGCGCGUGAAACAGAGAAGGGAACCAGAGAAACACACGUUGUGGUAUAUUACCUGGUA, with 0.197; and GUCCUCUUUCACGUGCGCGUGAAAAAGAGAAGUGAACCAGAGAAACACACCUUGUGGUAUAUUACCUGGUA, with 0.479.
In the case of GUCCUCUUUCACGUGCGCGUGAAACAGAGAAGUGAACCCGAGAAACACACGUUGUGGUAUAUUACCUGGUA, the self-cleavage amounted to 0.324.
As for GUCCUCUUUCACGUGCGCGUGAAACAGAGAAGUGAACCUGAGAAACACACGUUGUGGUAUAUUACCUGGUA, the figure is 0.262.
As for GUCCUCUUUCACGUGCGCGUGAAACAGAGAAGUGACCCAGAGAAACACACGUUGUGGUAUAUUACCUGGUA, the figure is 0.539; as for GUCCUCUUUCACGUGCGCGUGAAACAGAGAAGUGAGCCAGAGAAACACACGUUGUGGUAUAUUACCUGGUA, 0.497; as for GUCCUCUUUCACGUGCGCGUGAAAAAGAGAAGUGAACCAGAGAAACACACGUUGUGGUAUAUUAACUGGUA, 0.615.
